This is an account of results in article PMC9684356.

Read-outs that look alike come from different tables or passages of the source.

The target of data set [1] is T1, HLTF HIRAN domain (UniProt Q14527 51-171).
T1 sequence: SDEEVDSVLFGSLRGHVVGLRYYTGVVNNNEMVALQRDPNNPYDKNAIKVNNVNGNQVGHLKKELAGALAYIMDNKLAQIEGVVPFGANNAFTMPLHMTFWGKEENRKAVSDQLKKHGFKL
Briefly: competition.

Data set [2] addresses T1, HLTF HIRAN domain. In words: fluorescence polarization. (In general: In fluorescence polarisation assays a small probe gives low polarisation when free and higher when bound to something large.)
Data set [3] deals with T1, HLTF HIRAN domain. Briefly: fluorescence polarization. This is another data set of the same source.

For GGT (ssDNA), the IC50 in the data set with HLTF HIRAN domain [1] was 5400 ± 200 nM.
On the same count and under the same terms, for TCT (ssDNA) the value was 6800 ± 700 nM; for TCG (ssDNA), 2900 ± 300 nM.
Regarding CCT (ssDNA), the IC50 in the data set with HLTF HIRAN domain [1] turned out to be 6900 ± 70 nM.
In the data set with HLTF HIRAN domain [2], ATG (ssDNA) [5'-FAM-ATG] gave a Kd of 90 ± 10 nM.
Molecule TATAT (ssDNA) [5'-FAM-TATAT] registered a Kd with HLTF HIRAN domain [2] of 250 ± 100 nM.
Regarding CAG (ssDNA), the IC50 with HLTF HIRAN domain [1] came to 31700 ± 3900 nM.
On the same count and under the same terms, for ATTG (ssDNA) the value was 1800 ± 200 nM; for TTC (ssDNA), 13500 ± 600 nM.
The same measure, in the same setting: for GTG (ssDNA) the value was 2200 ± 70 nM.
For the molecule ATG (ssDNA), in the data set with HLTF HIRAN domain [1], the IC50 is 2900 ± 400 nM.
CTT (ssDNA) returned an IC50 with HLTF HIRAN domain [1] of 10000 ± 1500 nM. This IC50 is about 3.4-fold higher than that of the molecule before.
In the data set with HLTF HIRAN domain [3], TTTTT (ssDNA) [5'-FAM-T5] had a Kd of 140 ± 30 nM.
CTG (ssDNA) [5'-FAM-CTG] registered a Kd with HLTF HIRAN domain [2] of 60 ± 10 nM.
Turning to GGG (ssDNA), the IC50 with HLTF HIRAN domain [1] turned out to be 20200 ± 5100 nM.
Molecule AAAAA (ssDNA) [5'-FAM-A5] showed a Kd in the data set with HLTF HIRAN domain [2] of 160 ± 40 nM.
Consider CTG (ssDNA), for which, in the data set with HLTF HIRAN domain [1], the IC50 is 2500 ± 200 nM.
Consider TTA (ssDNA), for which the IC50 with HLTF HIRAN domain [1] was determined as 4300 ± 400 nM. This IC50 is about 1.7-fold higher than that of the molecule before.
Molecule TTG (ssDNA) [5'-FAM-TTG] had a Kd in the data set with HLTF HIRAN domain [2] of 30 ± 10 nM.
With CCG (ssDNA), in the data set with HLTF HIRAN domain [1], the IC50 turned out to be 3600 ± 200 nM.
Take GTG (ssDNA) [5'-FAM-GTG]: binding with HLTF HIRAN domain [2] was put at a Kd of 180 ± 10 nM.
Regarding TTTG (ssDNA) [5'-FAM-TTTG], in the data set with HLTF HIRAN domain [2], binding was characterised by a dissociation constant (Kd) of 100 ± 20 nM.
Take TAT (ssDNA): the IC50 with HLTF HIRAN domain [1] is 34900 ± 9200 nM.
For the molecule TGT (ssDNA), the IC50 with HLTF HIRAN domain [1] was 15500 ± 900 nM.
Consider ATATA (ssDNA) [5'-FAM-ATATA], for which binding in the data set with HLTF HIRAN domain [2] was characterised by a dissociation constant (Kd) of 170 ± 60 nM.
Take GTTG (ssDNA): in the data set with HLTF HIRAN domain [1], the IC50 is 1700 ± 100 nM.
In turn, TTG (ssDNA) had an IC50 with HLTF HIRAN domain [1] of 2800 ± 500 nM.
For the molecule TTTG (ssDNA), the IC50 with HLTF HIRAN domain [1] is 2000 ± 200 nM.
In the case of TCC (ssDNA) [5'-FAM-TCC], the Kd with HLTF HIRAN domain [2] was found to be 210 ± 70 nM.
Turning to TTT (ssDNA), in the data set with HLTF HIRAN domain [1], the IC50 worked out at 4300 ± 900 nM.
In the data set with HLTF HIRAN domain [1], TTTTT (ssDNA) [T5] had an IC50 of 2400 ± 600 nM. This IC50 lies about 1.8-fold lower than the previous one.
Consider GCC (ssDNA), for which, in the data set with HLTF HIRAN domain [1], the IC50 turned out to be 31800 ± 8500 nM.
Regarding GTTG (ssDNA) [5'-FAM-GTTG], binding in the data set with HLTF HIRAN domain [2] was put at a Kd of 220 ± 90 nM.
As for TCC (ssDNA), the half-inhibitory concentration (IC50) with HLTF HIRAN domain [1] was determined as 17100 ± 4800 nM.
CTTG (ssDNA): the IC50 in the data set with HLTF HIRAN domain [1] came to 1600 ± 200 nM.

One may read the IC50 as the concentration that inhibits the measured activity by half. The low end stands for higher potency, the high end for lower potency. The term Kd denotes the constant that tells how readily two partners part at equilibrium. Lower therefore signals higher affinity.
